Assay results taken from the supplement of paper PMC9233669.
This sample holds only a part of the variants without activity.

How the values were obtained:
biotinyl-Phe-oxazolone = assay: self-aminoacylation, catalytic enhancement (BFO) (fold over background); higher = more active; k-Seq, kA / k0A0; sequences stand for … in GGGAAUGGAUCCACAUCUACGAAUUC…UUCACUGCAGACUUGACGAAGCUG
Method in brief: (§1)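 Mutagenized RNA pools with a 21-nt variable region (0.43 μM) were reacted with each biotinyl-aminoacyl-oxazolone at 2–1250 μM for 90 minutes at room temperature, in 50 μL HEPES/NaCl/KCl/MgCl2/CaCl2 buffer containing 5% acetonitrile at pH 6.9–7.0. RNA captured on streptavidin was quantified by triplicate qPCR and by Illumina sequencing. The fraction reacted for each sequence was fit to a pseudo-first-order model with bootstrapping, and catalytic enhancement is the median kA divided by the uncatalyzed rate, taken as the low-activity peak of a bimodal Gaussian fit.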

biotinyl-Ile-oxazolone = assay: self-aminoacylation, catalytic enhancement (BIO) (fold over background); higher = more active; k-Seq, kA / k0A0; sequences stand for … in GGGAAUGGAUCCACAUCUACGAAUUC…UUCACUGCAGACUUGACGAAGCUG
Method in brief: as §1

biotinyl-Met-oxazolone = assay: self-aminoacylation, catalytic enhancement (BMO) (fold over background); higher = more active; k-Seq, kA / k0A0; sequences stand for … in GGGAAUGGAUCCACAUCUACGAAUUC…UUCACUGCAGACUUGACGAAGCUG
Method in brief: as §1

biotinyl-Val-oxazolone = assay: self-aminoacylation, catalytic enhancement (BVO) (fold over background); higher = more active; k-Seq, kA / k0A0; sequences stand for … in GGGAAUGGAUCCACAUCUACGAAUUC…UUCACUGCAGACUUGACGAAGCUG
Method in brief: as §1

biotinyl-Leu-oxazolone = assay: self-aminoacylation, catalytic enhancement (BLO) (fold over background); higher = more active; k-Seq, kA / k0A0; sequences stand for … in GGGAAUGGAUCCACAUCUACGAAUUC…UUCACUGCAGACUUGACGAAGCUG
Method in brief: as §1

biotinyl-Trp-oxazolone = assay: self-aminoacylation, catalytic enhancement (BWO) (fold over background); higher = more active; k-Seq, kA / k0A0; sequences stand for … in GGGAAUGGAUCCACAUCUACGAAUUC…UUCACUGCAGACUUGACGAAGCUG
Method in brief: as §1

Row | Sequence | self-aminoacylation (biotinyl-Phe-oxazolone) | self-aminoacylation (biotinyl-Ile-oxazolone) | self-aminoacylation (biotinyl-Met-oxazolone) | self-aminoacylation (biotinyl-Val-oxazolone) | self-aminoacylation (biotinyl-Leu-oxazolone) | self-aminoacylation (biotinyl-Trp-oxazolone)
1 | CUACUUCUAACAAUGGGUCUG [Fam1A.1 aminoacylation ribozyme variant] | 0.582 | 0.833 | 0.718 | 0.705 | 0.697 | 0.566
2 | CUACUUGAAACAAUCGGUCUG [Fam1A.1 aminoacylation ribozyme variant] | 0.652 | 0.766 | 0.788 | 0.779 | 0.707 | 0.631
3 | CUACUUGAAACAAUCGUUCUG [Fam1A.1 aminoacylation ribozyme variant] | 0.5 | 0.635 | 0.614 | 0.561 | 0.645 | 0.379
4 | CUACUUGAAACAAUGGGUCUG [Fam1A.1 aminoacylation ribozyme variant] | 0.694 | 1.3 | 1.65 | 1.13 | 1.13 | 1.61
5 | CUACUUUAAAAAAUCGGUCUG [Fam1A.1 aminoacylation ribozyme variant] | 0.887 | 1.01 | 0.987 | 0.87 | 0.744 | 0.72
6 | CUACUUUAGACAAUCGGUCUG [Fam1A.1 aminoacylation ribozyme variant] | 0.65 | 0.77 | 0.847 | 0.826 | 0.7 | 0.518
7 | CUAGUACAAACAAUCGGUCUG [Fam1A.1 aminoacylation ribozyme variant] | 0.781 | 0.837 | 0.725 | 0.775 | 0.802 | 0.572
8 | CUAGUUAAAACAAUCGGUCUG [Fam1A.1 aminoacylation ribozyme variant] | 0.675 | 0.795 | 0.958 | 0.679 | 0.801 | 0.622
9 | CUAGUUCAAACAAUCCGUCUG [Fam1A.1 aminoacylation ribozyme variant] | 0.796 | 0.861 | 0.885 | 0.895 | 0.89 | 0.713
10 | CUAGUUCAAACAAUCGCUCUG [Fam1A.1 aminoacylation ribozyme variant] | 0.847 | 0.832 | 0.827 | 0.934 | 0.798 | 0.844
11 | CUAGUUCAAACAAUCGGUCAG [Fam1A.1 aminoacylation ribozyme variant] | 2.03 | 0.714 | 0.731 | 0.753 | 0.692 | 1.2
12 | CUAGUUCAAACACUCGGUCUG [Fam1A.1 aminoacylation ribozyme variant] | 5.58 | 1.35 | 1.46 | 1.31 | 1.48 | 1.04
13 | CUAGUUCAAACGAUCGGUCUG [Fam1A.1 aminoacylation ribozyme variant] | 0.559 | 0.782 | 0.812 | 0.794 | 0.844 | 0.58
14 | CUAGUUCACACAAUCGGUCUG [Fam1A.1 aminoacylation ribozyme variant] | 2.8 | 1.28 | 1.13 | 1.14 | 1.36 | 1.19
15 | CUAUUUCAAACAAUCAGUCUG [Fam1A.1 aminoacylation ribozyme variant] | 4.29 | 0.795 | 0.721 | 0.852 | 0.72 | 1.7
16 | CUAUUUCAAACAAUCGGGCUG [Fam1A.1 aminoacylation ribozyme variant] | 2.05 | 1.24 | 1.08 | 1 | 0.844 | 1.88
17 | CUAUUUCAAACAAUCGGUCUU [Fam1A.1 aminoacylation ribozyme variant] | 2.72 | 0.864 | 0.878 | 0.827 | 0.792 | 1.57
18 | CUAUUUCAAACAAUCGGUUUG [Fam1A.1 aminoacylation ribozyme variant] | 4.11 | 0.907 | 0.903 | 0.81 | 1 | 3.18
19 | CUCACCCUGGUCAUCGAGUGA [Fam2.1 aminoacylation ribozyme variant] | 27.1 | 3.71 | 5.33 | 4.49 | 7.38 | 6.74
20 | CUCCGUCAAACAAUCGGUCUG [Fam1A.1 aminoacylation ribozyme variant] | 1.97 | 1.07 | 1.02 | 0.973 | 0.889 | 1.29
21 | CUCCUCCAAACAAUCGGUCUG [Fam1A.1 aminoacylation ribozyme variant] | 2.28 | 1.06 | 0.973 | 0.846 | 0.846 | 2.85
22 | CUCCUUAAAACAAUCGGUCUG [Fam1A.1 aminoacylation ribozyme variant] | 1.05 | 1.06 | 1.12 | 0.862 | 0.899 | 1.32
23 | CUCCUUCAAACAAUCGGCCUG [Fam1A.1 aminoacylation ribozyme variant] | 131 | 2.04 | 2.63 | 2.15 | 3.39 | 61.7
24 | CUCGUUCAAACAAUCGGUCUG [Fam1A.1 aminoacylation ribozyme variant] | 10.2 | 1.09 | 0.961 | 1.07 | 1.31 | 6.95
25 | CUGAUUCAAACAAUCGGUCUG [Fam1A.1 aminoacylation ribozyme variant] | 9.61 | 0.947 | 0.923 | 0.828 | 1.14 | 6.12
26 | CUGCAUCAAACAAUCGGUCUG [Fam1A.1 aminoacylation ribozyme variant] | 10.1 | 1.08 | 1.13 | 1.05 | 1.18 | 7.51

Row | Sequence | self-aminoacylation (biotinyl-Phe-oxazolone) | self-aminoacylation (biotinyl-Ile-oxazolone) | self-aminoacylation (biotinyl-Met-oxazolone) | self-aminoacylation (biotinyl-Val-oxazolone) | self-aminoacylation (biotinyl-Leu-oxazolone) | self-aminoacylation (biotinyl-Trp-oxazolone)
27 | CUGCUUCAAACAAUCGGGCUG [Fam1A.1 aminoacylation ribozyme variant] | 38.7 | 2.2 | 2.66 | 2.33 | 3.18 | 36.1
28 | CUGCUUCAAGCAAUCGGUCUG [Fam1A.1 aminoacylation ribozyme variant] | 132 | 1.29 | 2.13 | 1.49 | 2.96 | 42.8
29 | CUGCUUUAAACAAUCGGUCUG [Fam1A.1 aminoacylation ribozyme variant] | 2 | 0.889 | 0.879 | 0.79 | 0.754 | 1.87
30 | CUUACCCUGGACAUCGAGUGA [Fam2.1 aminoacylation ribozyme variant] | 11.5 | 2.78 | 5.08 | 3.18 | 5.46 | 5.06
31 | CUUACCCUGGUCAUAGAGUGA [Fam2.1 aminoacylation ribozyme variant] | 24.2 | 2.86 | 6.37 | 2.83 | 5.85 | 7.46
32 | CUUACCCUGGUCAUCGAGUAA [Fam2.1 aminoacylation ribozyme variant] | 8.84 | 2.03 | 4.58 | 2.8 | 4.25 | 3.51
33 | CUUACCCUGGUCAUCGAGUCA [Fam2.1 aminoacylation ribozyme variant] | 0.627 | 0.742 | 0.897 | 1.07 | 0.705 | 0.547
34 | CUUACCCUGGUCAUCGAGUGA [Fam2.1 aminoacylation ribozyme variant] | 85.8 | 9.83 | 25.3 | 11 | 23.1 | 26.1
35 | CUUACCCUGGUCAUCGAGUUA [Fam2.1 aminoacylation ribozyme variant] | 4.79 | 1.53 | 2.5 | 1.73 | 2.36 | 2.08
36 | CUUACCCUGGUCUUCGAGUGA [Fam2.1 aminoacylation ribozyme variant] | 17.9 | 2.29 | 3.87 | 2.64 | 4.29 | 5
37 | CUUACCCUGGUGAUCGAGUGA [Fam2.1 aminoacylation ribozyme variant] | 14.5 | 2.65 | 4.51 | 2.81 | 4.36 | 5.52
38 | CUUACCCUGUUCAUCGAGUGA [Fam2.1 aminoacylation ribozyme variant] | 7.83 | 2.29 | 4.32 | 2.86 | 4.33 | 6.94
39 | CUUAUUCAAACAAUCGGUCUG [Fam1A.1 aminoacylation ribozyme variant] | 7.03 | 0.702 | 0.713 | 0.688 | 0.679 | 3.34
40 | CUUCACCAAGGUCAUCGGGUG [Fam2.2 aminoacylation ribozyme variant] | 59.9 | 4.21 | 8.17 | 5.4 | 9.25 | 7.64
41 | CUUCACCGAGGUCAUCGGGUG [Fam2.2 aminoacylation ribozyme variant] | 59.7 | 3.01 | 6.2 | 4.68 | 7.45 | 5.44
42 | CUUCACCUAGGUAAUCGGGUG [Fam2.2 aminoacylation ribozyme variant] | 1.56 | 1.59 | 2.65 | 1.65 | 2.68 | 2.7
43 | CUUCACCUAGGUCAUCGGAUG [Fam2.2 aminoacylation ribozyme variant] | 1 | 1.06 | 0.842 | 1.18 | 0.891 | 0.921
44 | CUUCACCUAGGUCAUCGUGUG [Fam2.2 aminoacylation ribozyme variant] | 3.33 | 1.21 | 1.6 | 1.26 | 1.39 | 1.12
45 | CUUCACCUAGGUCCUCGGGUG [Fam2.2 aminoacylation ribozyme variant] | 34.1 | 3.4 | 6.74 | 4.26 | 7.45 | 6.69
46 | CUUCACCUGGGUCAUCGGGUG [Fam2.2 aminoacylation ribozyme variant] | 25 | 2.43 | 4.02 | 5 | 4.82 | 4.89
47 | CUUCACUUAGGUCAUCGGGUG [Fam2.2 aminoacylation ribozyme variant] | 23.4 | 2.82 | 4.3 | 2.8 | 5.55 | 5.12
48 | CUUCUACAAACAAUCGGUCUG [Fam1A.1 aminoacylation ribozyme variant] | 0.956 | 0.694 | 0.763 | 0.831 | 0.623 | 0.564
49 | CUUCUGCAAACAAUCGGUCUG [Fam1A.1 aminoacylation ribozyme variant] | 1.52 | 0.957 | 0.85 | 0.889 | 0.795 | 0.919
50 | CUUCUUCAAACAAGCGGUCUG [Fam1A.1 aminoacylation ribozyme variant] | 0.813 | 1.09 | 0.925 | 0.958 | 1.04 | 0.713
51 | CUUCUUCAAACAAUCCGUCUG [Fam1A.1 aminoacylation ribozyme variant] | 1.17 | 0.85 | 0.623 | 0.901 | 0.923 | 0.964
